Source: PMC2807882, “Conservation of DNA-binding specificity and oligomerisation properties within the p53 family” (BMC Genomics, 2009)

Columns and labels:
[1] = biological target: the molecule itself; assay: AUC; sedimentation velocity with fluorescence detection, FlAsH-labelled protein at 5-500 nM (monomer); 150 mM NaCl, 25 mM phosphate pH 7.2, 10% glycerol, BSA 0.2 mg/mL, 1 mM β-mercaptoethanol, 10°C; tetramer to dimers; Kd expressed in concentration of monomer
[2] = biological target: the molecule itself; assay: AUC; sedimentation velocity with fluorescence detection, FlAsH-labelled protein at 5-500 nM; 150 mM NaCl, 25 mM phosphate pH 7.2, 10% glycerol, BSA 0.2 mg/mL, 1 mM beta-mercaptoethanol, 10°C; tetramer to dimers; Kd expressed in concentration of monomer
[3] = biological target: the molecule itself; assay: AUC; sedimentation velocity with fluorescence detection, FlAsH-labelled protein at 5-500 nM (monomer); 150 mM NaCl, 25 mM phosphate pH 7.2, 10% glycerol, BSA 0.2 mg/mL, 1 mM β-mercaptoethanol, 10°C; dimer to monomers; Kd expressed in concentration of monomer
[4] = biological target: the molecule itself; assay: AUC; sedimentation velocity with fluorescence detection, FlAsH-labelled protein at 5-500 nM (also at 60 k rpm); 150 mM NaCl, 25 mM phosphate pH 7.2, 10% glycerol, BSA 0.2 mg/mL, 1 mM beta-mercaptoethanol, 10°C; dimer to monomers; Kd expressed in concentration of monomer

Row | Protein | Kd [1] [nM] | stoichiometry N [2] | also measured
1 | Danio rerio p53, full length, with C-terminal FlAsH tag, FlAsH-labelled (natural protein, UniProt P79734 1-373, looked up, FlAsH (from FlAsH-EDT2, an arsenic derivative of fluorescein) on the C-terminal CCPGCC tetra-cysteine tag, p53 of zebrafish (Danio rerio), full-length protein, from a Mammalian Gene Collection clone; also called Drp53; Drp53-FlAsH; not shown: 6xHis, N-terminal, cleaved; lipoyl domain, N-terminal, cleaved; FlAsH-tag CCPGCC, C-terminal, kept) MAQNDSQEFAELWEKNLIIQPPGGGSCWDIINDEEYLPGSFDPNFFENVLEEQPQPSTLPPTSTVPETSDYPGDHGFRLRFPQSGTAKSVTCTYSPDLNKLFCQLAKTCPVQMVVDVAPPQGSVVRATAIYKKSEHVAEVVRRCPHHERTPDGDNLAPAGHLIRVEGNQRANYREDNITLRHSVFVPYEAPQLGAEWTTVLLNYMCNSSCMGGMNRRPILTIITLETQEGQLLGRRSFEVRVCACPGRDRKTEESNFKKDQETKTMAKTTTGTKRSLVKESSSATLRPEGSKKAKGSSSDEEIFTLQVRGRERYEILKKLNDSLELSDVVPASDAEKYRQKFMTKNKKENRESSEPKQGKKLMVKDEGRSDSD | 3.6 |  | 
2 | Drp53 (zebrafish p53) with C-terminal FlAsH tag, labelled with FlAsH (natural protein, zebrafish (Danio rerio), UniProt P79734 1-373, looked up, FlAsH (from FlAsH-EDT2, Lumio Green) on the C-terminal CCPGCC tetra-cysteine tag, not shown: FlAsH tag CCPGCC, C-terminal, kept; 6xHis, N-terminal, cleaved; lipoyl domain, N-terminal, cleaved) MAQNDSQEFAELWEKNLIIQPPGGGSCWDIINDEEYLPGSFDPNFFENVLEEQPQPSTLPPTSTVPETSDYPGDHGFRLRFPQSGTAKSVTCTYSPDLNKLFCQLAKTCPVQMVVDVAPPQGSVVRATAIYKKSEHVAEVVRRCPHHERTPDGDNLAPAGHLIRVEGNQRANYREDNITLRHSVFVPYEAPQLGAEWTTVLLNYMCNSSCMGGMNRRPILTIITLETQEGQLLGRRSFEVRVCACPGRDRKTEESNFKKDQETKTMAKTTTGTKRSLVKESSSATLRPEGSKKAKGSSSDEEIFTLQVRGRERYEILKKLNDSLELSDVVPASDAEKYRQKFMTKNKKENRESSEPKQGKKLMVKDEGRSDSD |  | 4 | 
3 | Xenopus laevis p53, full length, with C-terminal FlAsH tag, FlAsH-labelled (natural protein, UniProt P07193 1-363, looked up, FlAsH (from FlAsH-EDT2, an arsenic derivative of fluorescein) on the C-terminal CCPGCC tetra-cysteine tag, p53 of frog (Xenopus laevis), full-length protein, from a Mammalian Gene Collection clone; also called Xlp53; Xlp53-FlAsH; not shown: 6xHis, N-terminal, cleaved; lipoyl domain, N-terminal, cleaved; FlAsH-tag CCPGCC, C-terminal, kept) MEPSSETGMDPPLSQETFEDLWSLLPDPLQTVTCRLDNLSEFPDYPLAADMTVLQEGLMGNAVPTVTSCAVPSTDDYAGKYGLQLDFQQNGTAKSVTCTYSPELNKLFCQLAKTCPLLVRVESPPPRGSILRATAVYKKSEHVAEVVKRCPHHERSVEPGEDAAPPSHLMRVEGNLQAYYMEDVNSGRHSVCVPYEGPQVGTECTTVLYNYMCNSSCMGGMNRRPILTIITLETPQGLLLGRRCFEVRVCACPGRDRRTEEDNYTKKRGLKPSGKRELAHPPSSEPPLPKKRLVVVDDDEEIFTLRIKGRSRYEMIKKLNDALELQESLDQQKVTIKCRKCRDEIKPKKGKKLLVKDEQPDSE | 27.6 |  | 
4 | Xlp53 (Xenopus laevis p53) with C-terminal FlAsH tag, labelled with FlAsH (natural protein, frog (Xenopus laevis), UniProt P07193 1-363, looked up, FlAsH (from FlAsH-EDT2, Lumio Green) on the C-terminal CCPGCC tetra-cysteine tag, also called frog p53; not shown: FlAsH tag CCPGCC, C-terminal, kept; 6xHis, N-terminal, cleaved; lipoyl domain, N-terminal, cleaved) MEPSSETGMDPPLSQETFEDLWSLLPDPLQTVTCRLDNLSEFPDYPLAADMTVLQEGLMGNAVPTVTSCAVPSTDDYAGKYGLQLDFQQNGTAKSVTCTYSPELNKLFCQLAKTCPLLVRVESPPPRGSILRATAVYKKSEHVAEVVKRCPHHERSVEPGEDAAPPSHLMRVEGNLQAYYMEDVNSGRHSVCVPYEGPQVGTECTTVLYNYMCNSSCMGGMNRRPILTIITLETPQGLLLGRRCFEVRVCACPGRDRRTEEDNYTKKRGLKPSGKRELAHPPSSEPPLPKKRLVVVDDDEEIFTLRIKGRSRYEMIKKLNDALELQESLDQQKVTIKCRKCRDEIKPKKGKKLLVKDEQPDSE |  | 4 | fold weaker self-association (dimer-tetramer equilibrium) than Dmp53, Drp53 and ΔNp73β [2]: ~10 fold
5 | Human p63 isoform ΔNp63β, with C-terminal FlAsH tag, FlAsH-labelled (natural protein, UniProt Q9H3D4-4 1-461, looked up, FlAsH (from FlAsH-EDT2, an arsenic derivative of fluorescein) on the C-terminal CCPGCC tetra-cysteine tag, the whole isoform is surmised; also called ΔNp63β-FlAsH; not shown: 6xHis, N-terminal, cleaved; lipoyl domain, N-terminal, cleaved; FlAsH-tag CCPGCC, C-terminal, kept) MLYLENNAQTQFSEPQYTNLGLLNSMDQQIQNGSSSTSPYNTDHAQNSVTAPSPYAQPSSTFDALSPSPAIPSNTDYPGPHSFDVSFQQSSTAKSATWTYSTELKKLYCQIAKTCPIQIKVMTPPPQGAVIRAMPVYKKAEHVTEVVKRCPNHELSREFNEGQIAPPSHLIRVEGNSHAQYVEDPITGRQSVLVPYEPPQVGTEFTTVLYNFMCNSSCVGGMNRRPILIIVTLETRDGQVLGRRCFEARICACPGRDRKADEDSIRKQQVSDSTKNGDGTKRPFRQNTHGIQMTSIKKRRSPDDELLYLPVRGRETYEMLLKIKESLELMQYLPQHTIETYRQQQQQQHQHLLQKQTSIQSPSSYGNSSPPLNKMNSMNKLPSVSQLINPQQRNALTPTTIPDGMGANIPMMGTHMPMAGDMNGLSPTQALPPPLSMPSTSHCTPPPPYPTDCSIVRIWQV | 12.2 |  | Kd [3]: 9.3 nM
6 | human ΔNp63β with C-terminal FlAsH tag, labelled with FlAsH (natural protein, UniProt Q9H3D4-4 1-461, looked up, FlAsH (from FlAsH-EDT2, Lumio Green) on the C-terminal CCPGCC tetra-cysteine tag, also called human p63; not shown: FlAsH tag CCPGCC, C-terminal, kept; 6xHis, N-terminal, cleaved; lipoyl domain, N-terminal, cleaved) MLYLENNAQTQFSEPQYTNLGLLNSMDQQIQNGSSSTSPYNTDHAQNSVTAPSPYAQPSSTFDALSPSPAIPSNTDYPGPHSFDVSFQQSSTAKSATWTYSTELKKLYCQIAKTCPIQIKVMTPPPQGAVIRAMPVYKKAEHVTEVVKRCPNHELSREFNEGQIAPPSHLIRVEGNSHAQYVEDPITGRQSVLVPYEPPQVGTEFTTVLYNFMCNSSCVGGMNRRPILIIVTLETRDGQVLGRRCFEARICACPGRDRKADEDSIRKQQVSDSTKNGDGTKRPFRQNTHGIQMTSIKKRRSPDDELLYLPVRGRETYEMLLKIKESLELMQYLPQHTIETYRQQQQQQHQHLLQKQTSIQSPSSYGNSSPPLNKMNSMNKLPSVSQLINPQQRNALTPTTIPDGMGANIPMMGTHMPMAGDMNGLSPTQALPPPLSMPSTSHCTPPPPYPTDCSIVRIWQV |  | 4 | fold weaker self-association (dimer-tetramer equilibrium) than Dmp53, Drp53 and ΔNp73β [2]: ~5 fold; fold weaker primary dimer (monomer-dimer equilibrium) than human p53 [4]: 9 fold
7 | Human p73 isoform ΔNp73β, with C-terminal FlAsH tag, FlAsH-labelled (natural protein, UniProt O15350-9 1-450, looked up, FlAsH (from FlAsH-EDT2, an arsenic derivative of fluorescein) on the C-terminal CCPGCC tetra-cysteine tag, the whole isoform is surmised; also called ΔNp73β-FlAsH; not shown: 6xHis, N-terminal, cleaved; lipoyl domain, N-terminal, cleaved; FlAsH-tag CCPGCC, C-terminal, kept) MLYVGDPARHLATAQFNLLSSTMDQMSSRAASASPYTPEHAASVPTHSPYAQPSSTFDTMSPAPVIPSNTDYPGPHHFEVTFQQSSTAKSATWTYSPLLKKLYCQIAKTCPIQIKVSTPPPPGTAIRAMPVYKKAEHVTDVVKRCPNHELGRDFNEGQSAPASHLIRVEGNNLSQYVDDPVTGRQSVVVPYEPPQVGTEFTTILYNFMCNSSCVGGMNRRPILIIITLEMRDGQVLGRRSFEGRICACPGRDRKADEDHYREQQALNESSAKNGAASKRAFKQSPPAVPALGAGVKKRRHGDEDTYYLQVRGRENFEILMKLKESLELMELVPQPLVDSYRQQQQLLQRPSHLQPPSYGPVLSPMNKVHGGMNKLPSVNQLVGQPPPHSSAATPNLGPVGPGMLNNHGHAVPANGEMSSSHSAQSMVSGSHCTPPPPYHADPSLVRTWGP | 2.4 |  | Kd [3]: 5.7 nM
8 | human ΔNp73β with C-terminal FlAsH tag, labelled with FlAsH (natural protein, UniProt O15350-9 1-450, looked up, FlAsH (from FlAsH-EDT2, Lumio Green) on the C-terminal CCPGCC tetra-cysteine tag, also called human p73; not shown: FlAsH tag CCPGCC, C-terminal, kept; 6xHis, N-terminal, cleaved; lipoyl domain, N-terminal, cleaved) MLYVGDPARHLATAQFNLLSSTMDQMSSRAASASPYTPEHAASVPTHSPYAQPSSTFDTMSPAPVIPSNTDYPGPHHFEVTFQQSSTAKSATWTYSPLLKKLYCQIAKTCPIQIKVSTPPPPGTAIRAMPVYKKAEHVTDVVKRCPNHELGRDFNEGQSAPASHLIRVEGNNLSQYVDDPVTGRQSVVVPYEPPQVGTEFTTILYNFMCNSSCVGGMNRRPILIIITLEMRDGQVLGRRSFEGRICACPGRDRKADEDHYREQQALNESSAKNGAASKRAFKQSPPAVPALGAGVKKRRHGDEDTYYLQVRGRENFEILMKLKESLELMELVPQPLVDSYRQQQQLLQRPSHLQPPSYGPVLSPMNKVHGGMNKLPSVNQLVGQPPPHSSAATPNLGPVGPGMLNNHGHAVPANGEMSSSHSAQSMVSGSHCTPPPPYHADPSLVRTWGP |  | 4 | fold weaker primary dimer (monomer-dimer equilibrium) than human p53 [4]: 6 fold
9 | Drosophila melanogaster p53, full length, with C-terminal FlAsH tag, FlAsH-labelled (natural protein, UniProt Q9N6D8 1-385, looked up, FlAsH (from FlAsH-EDT2, an arsenic derivative of fluorescein) on the C-terminal CCPGCC tetra-cysteine tag, p53 of Drosophila melanogaster, full-length protein, amplified from a cDNA library; also called Dmp53; Dmp53-FlAsH; not shown: 6xHis, N-terminal, cleaved; lipoyl domain, N-terminal, cleaved; FlAsH-tag CCPGCC, C-terminal, kept) MYISQPMSWHKESTDSEDDSTEVDIKEDIPKTVEVSGSELTTEPMAFLQGLNSGNLMQFSQQSVLREMMLQDIQIQANTLPKLENHNIGGYCFSMVLDEPPKSLWMYSIPLNKLYIRMNKAFNVDVQFKSKMPIQPLNLRVFLCFSNDVSAPVVRCQNHLSVEPLTANNAKMRESLLRSENPNSVYCGNAQGKGISERFSVVVPLNMSRSVTRSGLTRQTLAFKFVCQNSCIGRKETSLVFCLEKACGDIVGQHVIHVKICTCPKRDRIQDERQLNSKKRKSVPEAAEEDEPSKVRRCIAIKTEDTESNDSRDCDDSAAEWNVSRTPDGDYRLAITCPNKEWLLQSIEGMIKEAAAEVLRNPNQENLRRHANKLLSLKKRAYELP | 1.7 |  | 
10 | Dmp53 (Drosophila melanogaster p53) with C-terminal FlAsH tag, labelled with FlAsH (natural protein, fruit fly (Drosophila melanogaster), UniProt Q9N6D8 1-385, looked up, FlAsH (from FlAsH-EDT2, Lumio Green) on the C-terminal CCPGCC tetra-cysteine tag, amplified from a cDNA library (Simon Bullock); also called fruit fly p53; not shown: FlAsH tag CCPGCC, C-terminal, kept; 6xHis, N-terminal, cleaved; lipoyl domain, N-terminal, cleaved) MYISQPMSWHKESTDSEDDSTEVDIKEDIPKTVEVSGSELTTEPMAFLQGLNSGNLMQFSQQSVLREMMLQDIQIQANTLPKLENHNIGGYCFSMVLDEPPKSLWMYSIPLNKLYIRMNKAFNVDVQFKSKMPIQPLNLRVFLCFSNDVSAPVVRCQNHLSVEPLTANNAKMRESLLRSENPNSVYCGNAQGKGISERFSVVVPLNMSRSVTRSGLTRQTLAFKFVCQNSCIGRKETSLVFCLEKACGDIVGQHVIHVKICTCPKRDRIQDERQLNSKKRKSVPEAAEEDEPSKVRRCIAIKTEDTESNDSRDCDDSAAEWNVSRTPDGDYRLAITCPNKEWLLQSIEGMIKEAAAEVLRNPNQENLRRHANKLLSLKKRAYELP |  | 4 | 
